Assay: soluble on expression in E. coli; label from the status in PepcDB or PDB records

Sequence | soluble on expression in E. coli
MGSDKIHHHHHHMNTDDILFSYGEEDIPLKALSFPIFETTNFYFDSFDEMSKALRNGDYEFVYKRGSNPTTRLVEKKLAALEECEDARLVASGMSAISLSILHFLSSGDHVVCVDEAYSWAKKFFNYLSKKFDIEVSYVPPDAERIVEAITKKTKLIYLESPTSMRMKVIDIRKVTEAAGELKIKTVIDNTWASPIFQKPKLLGVDVVVHSATKYISGHGDVMAGVIAGDVEDMKNIFVDEYKNIGPVLSPIEAWLILRGLRTLELRMKKHYENALVVSDFLMDHPKVLEVNYPMNPRSPQYELASSQMSGGSGLMSFRLKTDSAEKVKEFVESLRVFRMAVSWGSHENLVVPRVAYGDCPKKDVNLIRIHVGLGDPEKLVEDLDQALKKI | not soluble
TTFTTRDGTQIYYKDWGSGQPIVFSHGWPLNADSWESQMIFLAAQGYRVIAHDRRGHGRSSQPWSGNDMDTYADDLAQLIEHLDLRDAVLFGFSTGGGEVARYIGRHGTARVAKAGLISAVPPLMLKTEANPGGLPMEVFDGIRQASLADRSQLYKDLASGPFFGFNQPGAKSSAGMVDWFWLQGMAAGHKNAYDCIKAFSETDFTEDLKKIDVPTLVVHGDADQVVPIEASGIASAALVKGSTLKIYSGAPHGLTDTHKDQLNADLLAFIKG | soluble
MANFTAADVKRLRELTGAGMLACKNALAETDGDFDKAVEALRIKGAKDVGKRAERATAEGLVAAKDGALIELNCETDFVAKNAEFQTLADQVVAAAAAAKPADVDALKGASIGDKTVEQAIAELSAKIGEKLELRRVAIFDGTVEAYLHRRSADLPPAVGVLVEYRGDDAAAAHAVALQIAALRARYLSRDDVPEDIVASERRIAEETARAEGKPEQALPKIVEGRLNGFFKDAVLLEQASVSDNKKTVKALLDVAGVTVTRFVRFEVGQA | not soluble
QLERGQEKQALEQAILARTDAPYQSLASVLDNNDWREESVIGVKVQAEAKPEPLPVVLLDNQTFQGKVGYLAYQVVSVGQDPITLALLELGFVEGLRTRDSLPTVTTLTSPTNVTGRLYRKSMNPLSSELMPEMGEGIRVQNLNISELNELLNVELMPAVLQPDNLENWAYPFPWNPLPLTSAKHFGYAVQ | not soluble
MMDEKLNFSYLFGSNAPYIEELYEAFLENPDAVDEKWKQYFTDLSKQPGTVAVDVAHTPIRESFVTLAKKKIASAVAGGADEAMLKKQVSVLRLISAYRIQGVGAAQLDPLKRIPPRDIEALDPKFHGLSDADMALQFNMGEGDFANRGKLPLSQIISNLKQTYCGHIALEYIYIPNTEERRWVRNYFESVLSTPHYNADQKRRILKEMTAAETLERYLHTKYVGQKRFGVEGGESAIAGLNYLIQNAGKDGVEEVIIGMAHRGRLNVLVNILGKKPGDLFAEFEGRAEIKLPSGDVKYHMGFSSDIATPHGPMHVSLAFNPSHLEIVNPVVEGSARAKQKRLGENGRDKVLPVLIHGDSAFIGLGVNQATFNLSKTRGYTTGGTVHIVINNQIGFTTSDIRDTRSTVHCTDIAKMVSAPVIHVNGDDPERVCFAIQAALDYRKKFHKDIVIDVVCYRKWGHNEGDDPTLTQPMMYKKVSQHPGARALYTEQLIAEGVVTQAEADGYIQAYRDALDKGEHVEQTTLSNFQRTQIDWSKYQGKDWREHIETGLPAADIERLTEKFTAVPEGFALHPTAKRVIEARKAMASGKQAIDWGMAETLAYASLVTKGHGVRISGEDSGRGTFSHRHAVLHDQKREKWDDGTYVPLRHMGEGMGEFLVIDSILNEEAVMAFEYGFACSAPDKLTIWEAQFGDFANGAQVTIDQFLSSGETKWGRLCGLTTILPHGYDGQGPEHSSARVERWLQLCSENNMQVIMPSEASQMFHLLQRQVLGSYRKPLVIFMSKRLLRFKGAMSPLENFTEGSTFRPVIGDTAERASNDSVKRVVLCAGQVYYDLEAGRAERKLEDDVAIVRVEQLYPFPYDEVKAELAKYPNAKSVVWAQEEPKNQGAFYQIRHRIEDVISEEQKLSYAGRPSSASPAVGYSSKHIAQLKQLVEDALAL | not soluble
MALNVNRAVADPFYRYKMPKLSAKVEGKGNGIKTVISNMSEIAKALERPPMYPTKYFGCELGAQTNFDAKNERYIVNGEHDANKLQDILDGFIKKFVLCKSCENPETQLFVRKNNIKSKCKACGCSFDIDLKHKLSTFIMKNPPKIDVDFSKAEQKNGKKTSGADAAAAVAADIIHNSDKGSSNDDDDDDWEPEPVEPNGMLSAGMGKLVLDKDLEKSEEQRLDMLHTFFLKAKEEDRISDAKGQTALRDEAERLELKQKASLLLANVFLDEKVITDKQISKHRNLLLRFTLNDKKAQRYLLGGVEQVIHKHEAELLSKSAHIIKSLYDEDVCEEDSLISWGEKPSSKYVSKSFAKKIIENSQPVLNWLKEAEEETEEESDDEIAFGGDVKESEFLRQQKEKAAREAQQKSAKATNGNAAAASGANDEEDLDIDDI | soluble
MLNEKQAKHIATAIENGNYRSKRQAIVDTTNFWSVSVPIFYQFDTKLSATNIANVRKAIQFWNDNSCLSFKEDNNAKNRLFLSSAGGCWSYVGKQVDMPYQMVSVGPNCDTFGTATHELMHAIGFWHQQSRADRDNYVYVDFSNIIPSQAYNFQKMAVDQAQLLNLPYDYGSVMQYYPYAFAVDSSKYTILAKENGFQNSMGQREAPAFSDIIGVNKLYNCTSQCKIQMKCSNCGITDSRNCNQCKCPRYFTGASCDSLPSGTAPNCNGAVLQATSSWETFDAKAGDPSSFSSSTDNSTNCYWHIKAPEGQQIEFKMTKTPLAAICMQECPWQSIEVNLGKFDLFGMITCCDTILNQVFTSELNMIALRGIIRYNQLTFSIQYRAVPSSKPASTNACLNQ | not soluble
MGSDKIHHHHHHMIILDRNSYDLLSYLIKLEEPETVMSISKVLNQSRRKVYYHLDKINEALPSEIPKIISYPRIGILLSSQQKAACRTLLADLDDYSYVMSIQERMLLSITYIAIAKDRVTIEKLMQINAVSRNTILNDLNELRQRLSFEPYSIKLQATKSKGYYLDCHPLSKIQYLNKLLHTIYTDSNPNFIAMMRDKLRDFADLSSYFSDDISSFIRGELQVSQALLGKKINSQDIRFMVATLPYQLLSYQNLGLSEREQRDLLSEFSPIKERKEYEIARHLNENLKREFHIELDEIETSLIAVLLLSYRKDRDMHLESHDYDDMRRVLSYFIDAFELDYHVCFKHKQLLLNQLLTHCKALLFRKAYGIVSNNPLTDQIKDKYADLFAMTKVCLSILENAWSIKMNDDDIAYITIHIGGELVHSETKPTPPAVLTLVCDEGIGVQKLFMQQCKQYLPHSKIEAVLTSEQFYSVADIMAVDLVISTNDSLDTQLPTLFVHSILRDDDAIKLIRFAKQRGQTGQDDFDKKLETYIRHYVKNDSDCYVLKTKIEGLINEELLYDNNKR | not soluble
DLPIADVQGSLDTRHIAIDRVGIKAIRHPVVVADKGGGSQHTVAQFNMYVNLPHNFKGTHMSRFVEILNSHEREISVESFEEILRSMVSRLESDSGHIEMAFPYFINKSAPVSGVKSLLDYEVTFIGEIKHGNQYSFTMKVIVPVTSLCPCSKKISDYGAHNQRSHVTISVRTNSFIWIEDIIRIAEEQASCELYGLLKRPDEKYVTERAYNNPKFVEDIVRDVAEVLNHDDRIDAYIVESENFESIHNHSAYA | not soluble
MGSDKIHHHHHHMTNEYEHLNAIQKIGLSILKEIIAICKRHDLTYYVYGGTLLGAIRHQGFIPWDDDVDIAMSRKDFEKLKQYQNEFPQYMFLDTIQQKGHQWTAAHVVDTRYKLEVGKGMKKATMSVWVDILIIDGVPNPGTFKYKIFSAAYLTARLLYKFSNFSNEVDLEKDRSAIETFFISFARITHIEKVINQHWAGCFIDWISRRYDLDKCEYGATLGGPQKMGETQPKYWFGKGKELLFEDIIVNGMEETENFLTKFYGPNYMTPPPLDKRNQHNVRLVEKIV | not soluble
MGSSHHHHHHGGTGENLYFQGGSGTAPPGSPAFCPPPAQYQYAYVPAASYVAASSCVGRGNNGGPLPYPLQPEAAPGYGEEQTSLLWNTRLFGLSTDVPSAMDSVMCIYCISSTHFNYLYRQQRGMFDPITAALLCFDVFWCMQLWPVVTPLSSITLHTLITRRELRKRYGLVGNDLFVKMDRLNADTAAATEAGETGAQAEEATTAEVESQPHRARDSDVTAEAAAAEPAGTGEAAAEVISVTPPATAPSEAAAPRTGESDVMAHTPRRVCHGLRS | not soluble
MGSDKIHHHHHHMPQDTISVSLLDSRIQASRPNYYNPLLVYKTAKIKVNKDAASYKILNLTVNNYEKQIETLEKENGNGEDQFGKEKTLLKTAMSNFFNSSEESLKSADLFIYKDKPEELKNYLKVHRHTFVVLINTEGDASDDGLKIYKDDYNKFKKPSTFFVFSTKEQEIKELFKDKGNTEKERNIAVYSNNKDNLHLKFISQYLHQASIFHAVNPYGMPLAATPLVDDTVIGKLRTAKINFYSLLNETGLDGVPAFKEGVDLAGGAIDEQFTYHYIKNEAIIELIRIWNKNNRQNSKLSALQLSGARDNAYTSAIECLLKRFVDRGLIIEYKNLRLTLSPTPQLKLELSVNITYNFSINAVALVITTQDIVDYQNSLSA | not soluble
MSWTDERVELLKKMWGEGQSASQIAKELGGVTRNAVIGKVHRLGLSNRSSGAAPASTKAETKEKPAAATPRAEAKPKPAPRPEPLRAAPDPAPAPQPAEIKPIPARKQIIPAGQPLPPQPSANEISPEALAKVNEVEKKAKKLSLMELTERTCKWPVGDPATEDFWFCGLPVQQGKPYCEAHVGVAFQPMSSRRDRRRLEHHHHHH | soluble
MSLAELTALYTLTAQMKREGICRLLVLSGEEGWCFDHALKLRDALPGDWLWISPQLDAENHCSPSALQTLLGREFRHAVFDARHGFDAAAFAALSGTLKAGSWLVLLLPVWEEWENQPDADSLRWSDCPDPIATPHFVQHLKRVLTADNDAILWRQNQPFSLAHFTPRTDWHPATGAPQPEQQQLLQQLLTMPPGVAAVTAARGRGKSALAGQLISRIAGSAIVTAPAKAATDVLAQFAGEKFRFIAPDALLASDEQADWLVVDEAAAIPAPLLHQLVSRFPRTLLTTTVQGYEGTGRGFLLKFCARFPHLHRFELQQPIRWAQGCPLEKMVSEALVFNDENFTHTPQGNIVISAFEQTLWRSEPETPLKVYQLLSGAHYRTSPLDLRRMMDAPGQHFLQAAGENEIAGALWLVDEGGLSQELSQAVWAGFRRPRGNLVAQSLAAHGSNPLAATLRGRRVSRIAVHPARQREGTGRQLIAGALQYTHDLDYLSVSFGYTGELWRFWQRCGFVLVRMGNHREASSGCYTAMALLPMSDAGKQLAEREHYRLRRDAQALAQWNGEMLPVDPLNDAILSDDDWLELAGFAFAHRPLLTSLGCLLRLLQTSELALPALRGRLQKNASDAQLCTTLKLSGRKMLLVRQREEAAQALFALNEVRTERLRDRITQWQFFHEGHHHHHH | soluble
MYPNISDCGVIGDTRTAALVNSNGSIDYCSLPYFDSPTVFAALLDERKGGYFSLKPAEAFSSRREYLPDTCILCTSFTTRNGKAALYDFMPHQDDKTRERTQGIHRCIRVDEGRVKFTLTLKLLTFQQTGAIVAAATTSLPESIGGKRNWDYRFTWIRNASFTLKAFFALSHTSEADTFIRWLHDTYRKNGSRGFSQKLNAFVQRFDTEILDASLLIMPLVDFLPVTDQRIQGTIEACQTHLMDNGFIRRYRADDGLEEDEGGFLLCNFWMIECLALSGKSAEAEKLLGITMAAANDLGLFSEEYDPYSREMLGNFPQAFSHIGYINAAATLIDSKLPLANPLEHHHHHH | not soluble
MLKVFADRGGTFTDIVAVTHNQEIIERLSKSTERFLIVPLPNQEWIIVYKLLSENPEQYQDAVIQGIRDIIGLSRNEPISDEAIEVVKMGTTVATNALLERKGDRVVLLITTGFKDALRIGYQNRPNIFAQRIVLPTMLYEQVIEVEERYDAQGNELTPVNIAQVKEDLQAVYHTGIRSCAIILMHSDRYPIHEQQVAQIAQEIG | not soluble
MTCEVLITEFVAHPSDITDAYARYQQRIQDAPLHIVCSSPRPLPSKGSAYAQWSLRCESAYAQKSHPELMQCYELRSLVTYEETPDPDDSLIEKFFFEDCAEPTVYSASVNRLDIELGAVDTRCTDELCIVTPVFLAHSEHAEVLQSLYEVLVSNADPVAYAASIAECDDISQANLIGLLWVRDAQRTMSNVGDQIYAMGKTAWTGWILVEASKQEELQLQLSELIDATNAVAYLTATPW | soluble

— the DeepSol protein solubility set
